Assay results reported in the supplement of paper PMC9732359.
± gives the uncertainty stated by the source.

Experiment: protein stability index of a GFP-peptide fusion (yeast GPS) (PSI 1-4); higher = more stable; sorted into four equal gates, so the index is relative within each strain
Summary of the method: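 Peptides tiling yeast proteins in 17-residue segments were fused downstream of GFP, with Cherry expressed from the same plasmid. As a pooled library in yeast, mid-log cultures grown in leucine-free medium were sorted into four equal gates by GFP/Cherry fluorescence ratio. Gate plasmids were PCR-amplified and Illumina-sequenced, and barcodes linked reads to strains. Each peptide received a protein stability index equal to the sum of each gate's read frequency times its gate number.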

Row | Sequence | protein stability index (doa10∆) | protein stability index (pdr5∆) | protein stability index (san1∆) | protein stability index (ubr1∆)
1 | KLNTLSEILSFDPVYTT [YML103C/NUP188] | 2.54 ± 0.061 | 2.77 ± 0.067 | 2.85 ± 0.073 | 2.77 ± 0.078
2 | KILGKGRIPNVPVIVKA [RPL28] | 2.35 ± 0.065 | 1.87 ± 0.081 | 2.37 ± 0.085 | 3.24 ± 0.054
3 | KGTEASNDIIDKPYLLR [YDL116W/NUP84] | 3.33 ± 0.09 | 3.23 ± 0.078 | 3.34 ± 0.1 | 2.76 ± 0.11
4 | TKVLQFAAKQRQELQMQ [SNF2] | 2.3 ± 0.12 | 2.71 ± 0.076 | 2.51 ± 0.059 | 2.31 ± 0.083
5 | AKKQNYKLTNDEEGIFS [YCG1] | 3.23 ± 0.098 | 3.45 ± 0.1 | 3.15 ± 0.074 | 3.19 ± 0.075
6 | IYEKLKNYLKNYILNFK [CDC53] | 2.44 ± 0.063 | 1.32 ± 0.055 | 1.17 ± 0.13 | 1.14 ± 0.061
7 | NDQVEKDAEDETSSDGS [RPN1] | 2.63 ± 0.15 | 2.42 ± 0.096 | 2.04 ± 0.17 | 2.59 ± 0.13
8 | IYLLFQSSGKLKEYLDL [YDL116W/NUP84] | 2.51 ± 0.051 | 2.44 ± 0.052 | 2.52 ± 0.048 | 2.6 ± 0.038
9 | MSNQALYEKLEQTRTIL [SRB6] | 3.11 ± 0.3 | – | – | –
10 | LKTLTHKQIHTTIFVKS [POP7] | 1.94 ± 0.036 | 2.07 ± 0.038 | 1.77 ± 0.063 | 1.82 ± 0.029
11 | IPSGNVWNYTFMGTAFN [PRP8] | 2.76 ± 0.11 | 2.47 ± 0.16 | 2.74 ± 0.095 | 2.93 ± 0.068
12 | YSIDEFFLQRKLRSELG [BRR2] | 2.3 ± 0.12 | 2.06 ± 0.13 | 1.8 ± 0.16 | 1.5 ± 0.22
13 | PLPSHALTVQEVLNRVA [YDL116W/NUP84] | 2.29 ± 0.039 | 2.37 ± 0.042 | 2.37 ± 0.053 | 2.33 ± 0.027
14 | KKWPQFYAAVQKNYADP [SIN4] | 1.5 ± 0.07 | 2.09 ± 0.084 | 2.77 ± 0.13 | 2.18 ± 0.075
15 | GESEKSSDVDMDDEEWR [RPC53] | 3.7 ± 0.22 | 3.63 ± 0.21 | 3.35 ± 0.21 | 3.33 ± 0.18
16 | LNRQNDITDGKDYHTLA [RPS18A] | 3.13 ± 0.069 | 3.33 ± 0.061 | 3.27 ± 0.05 | 3.11 ± 0.06
17 | TRSAKKMVIAELLPHYP [YJR042W/NUP85] | 2.83 ± 0.089 | 2.81 ± 0.087 | 2.89 ± 0.052 | 3 ± 0.074
18 | LSTGRKFERARGRRRSK [RPL18A] | – | – | – | 3.05 ± 0.1
19 | EIMYTGVSISVSFNSKQ [SMC3] | 1.61 ± 0.089 | 1.99 ± 0.07 | 2.83 ± 0.087 | 2.29 ± 0.1
20 | NPLADAEEALEPSYIFE [PRE4] | 3.09 ± 0.072 | 2.83 ± 0.077 | 3.08 ± 0.055 | 3.12 ± 0.06
21 | GFINQKNLKPQEQLKNV [YIL149C/MLP2] | 3.09 ± 0.11 | 2.84 ± 0.081 | 2.77 ± 0.062 | 2.9 ± 0.068
22 | IPPTFDKGAVGPNNFIW [MED4] | 3.22 ± 0.091 | 3.01 ± 0.084 | 2.77 ± 0.082 | 3.14 ± 0.11
23 | VLSLGRPNLPTHNFKLS [RGR1] | 3.04 ± 0.17 | – | – | –
24 | KERISVAAASKILSNLV [PRE2] | 2.75 ± 0.059 | 2.69 ± 0.041 | 2.78 ± 0.048 | 2.71 ± 0.034
25 | VKPQYDEIHIPAPSKPV [BRR2] | 2.59 ± 0.097 | 2.59 ± 0.12 | 2.41 ± 0.084 | 1.83 ± 0.093
26 | SNTEPIPRSNRHGSVVE [MED1] | 2.23 ± 0.17 | 3.22 ± 0.23 | 2.72 ± 0.17 | –

Row | Sequence | protein stability index (doa10∆) | protein stability index (pdr5∆) | protein stability index (san1∆) | protein stability index (ubr1∆)
27 | KKRESGVEEEEELKDSE [SNF2] | 3.38 ± 0.28 | – | 3.3 ± 0.12 | –
28 | VDIYTHFTSPIRRYCDV [DIS3] | 1.61 ± 0.043 | 1.91 ± 0.055 | 1.94 ± 0.073 | 2.19 ± 0.04
29 | ESMSYLPDPILKNFLSY [MCD1] | 2.34 ± 0.13 | 2.79 ± 0.12 | 2.5 ± 0.14 | 2.51 ± 0.098
30 | QFNAQGVRDINCVNDVL [POP1] | 2.92 ± 0.17 | 2.92 ± 0.17 | 2.91 ± 0.11 | –
31 | YQWNLDGLQQLDKYLYV [RPN1] | 2.92 ± 0.068 | 3.08 ± 0.058 | 2.49 ± 0.12 | 2.2 ± 0.046
32 | KTKTSLLPTIKRTICKK [RPR2] | 3.27 ± 0.11 | 3.18 ± 0.13 | 2.49 ± 0.18 | 3.29 ± 0.13
33 | GLKRSQLDEFKNKYLKD [SWP82] | 3.11 ± 0.13 | 2.89 ± 0.21 | 2.89 ± 0.12 | 2.69 ± 0.17
34 | TPISNEQTEGEPKKKRG [SRP68] | 3.16 ± 0.12 | 3.27 ± 0.17 | 3.27 ± 0.11 | 3.27 ± 0.068
35 | TIFGGVDKNGAHLYMLE [PRE10] | 2.88 ± 0.076 | 2.66 ± 0.071 | 2.87 ± 0.086 | 3.29 ± 0.075
36 | SMERKVQGAAPWDTSLE [MCD1] | 3.5 ± 0.11 | 3.1 ± 0.089 | 3.25 ± 0.087 | 3.44 ± 0.16
37 | YSMISLQNCCIIDVGTH [ARP9] | 1.75 ± 0.085 | 1.41 ± 0.067 | 1.2 ± 0.15 | 1.33 ± 0.083
38 | DAHGVTQARVITGNKIM [RPS13] | 2.21 ± 0.088 | 1.61 ± 0.071 | 1.22 ± 0.12 | 1.56 ± 0.062
39 | DMLEHINLAMNESSLAL [SRB4] | 1.49 ± 0.094 | 1.28 ± 0.11 | 1.25 ± 0.15 | 1.52 ± 0.092
40 | SNLEKLLFINSSKLVDV [YML103C/NUP188] | 2.48 ± 0.094 | 2.07 ± 0.066 | 1.83 ± 0.12 | 2.62 ± 0.082
41 | GPSSVHNAKNGTLDKNS [SNF2] | 2.66 ± 0.22 | 3.03 ± 0.22 | – | 2.74 ± 0.17
42 | NQNQRNVNETMSRSLAN [SMC3] | 3.11 ± 0.12 | 2.65 ± 0.12 | 3.15 ± 0.059 | 2.86 ± 0.077
43 | PSEFHCLQDALDAIDDF [SSN2] | 3.14 ± 0.1 | 3.16 ± 0.067 | 3.12 ± 0.05 | 3.09 ± 0.097
44 | EILTNQQRGITYLNEVL [YGR119C/NUP57] | 2.7 ± 0.068 | 3.09 ± 0.079 | 3.12 ± 0.061 | 2.71 ± 0.066
45 | APKGSTDPKELYNNAHV [RPC40] | 2.92 ± 0.14 | 2.96 ± 0.082 | 2.68 ± 0.11 | 3.21 ± 0.062
46 | VQYLSGAHGNSDPVCLF [POP3] | 2.96 ± 0.12 | 2.83 ± 0.18 | 3.04 ± 0.11 | 2.75 ± 0.063
47 | IGQFLEPIDQNTGIVSS [RPT3] | 2.48 ± 0.2 | 2.82 ± 0.11 | 2.14 ± 0.17 | 2.85 ± 0.066
48 | AEKYQERSLRQKYNLLH [SNM1] | 2.32 ± 0.057 | 2.73 ± 0.074 | 3.23 ± 0.067 | 3.12 ± 0.083
49 | KCIPKKGTVFQFEIPIS [POP4] | 1.44 ± 0.16 | 1.68 ± 0.087 | 1.49 ± 0.29 | 1.17 ± 0.052
50 | RHLRRTGKVSEFISIYS [RET1] | 1.48 ± 0.14 | 2.05 ± 0.13 | – | 1.37 ± 0.14
51 | KLKQQSSTDIPSYTHVL [RRI1] | 2.29 ± 0.034 | 2.48 ± 0.04 | 2.52 ± 0.045 | 2.49 ± 0.035
52 | LYSYLIKENFFERIMIL [YJL039C/NUP192] | 1.48 ± 0.063 | 1.42 ± 0.073 | 1.49 ± 0.2 | 1.26 ± 0.11
